The experiment concerns the target Isolated RCK domain (M107-A336) of MthK, preparation for NMR (from pQE70-MthK) (Methanobacterium thermoautotrophicum, UniProt O27564 107-336). Nature of the experiment: NMR titration; 700-MHz 1H NMR, 25 °C; isolated RCK titrated with synthetic peptide at [peptide]:[RCK] 0:1, 1:5, 1:2, 1:1 and 1:0; 20 mM Tris-HCl (pH 7.5), 150 mM KCl, 1 mM DTT; RCK concentrated to approximately 200 μM; disappearance of the peptide's His11 and Met1 peaks followed. The conditions noted are these: both partners purified.

Where no end group is shown, it is not given here.

B1: synthetic aa1–11 peptide (peptide)
peptide: MVLVIEIIRKH-NH2
notes: MthK K+ channel of Methanobacterium thermoautotrophicum, N-terminal residues 1-11; source: synthetic peptide (Celtek Peptides)
For B1, the binding result is given as “binds”.

The record behind these values is PMC2573919, “The Desensitization Gating of the MthK K^+ Channel Is Governed by Its Cytoplasmic Amino Terminus” (PLoS Biology, 2008).
